This note sets out measurements from PMC2697320, “Identification of the high affinity binding site in the Streptococcus intermedius toxin intermedilysin for its membrane receptor, the human complement regulator CD59” (Molecular Immunology, 2009).

This assay addresses T1, Recombinant soluble CD59 comprising amino acids 1-76 with an 11 amino acid Ser/Gly linker and termin (human, terminal Cys reduced with TCEP and thiol-coupled to the PDEA-modified CM5 chip).
T1 construct: also called recombinant CD59; immobilised CD59
In words: SPR. The note with it: both partners purified.

As to AWEPWRLIYSKNDLPLVPC, the Kd (usually the equilibrium constant for the complex coming apart) was determined as 4.92 µM.
